Results on one substance are retold here after patent US20030152571A1.

Experiment [1] deals with rabbit αvβ3 receptor on rabbit smooth muscle cells (rabbit). Put plainly: cell-based or functional assay.
Experiment [2] addresses human vitronectin receptor αvβ3 purified from human placenta (human) (UniProt P06756). Put plainly: BIAcore; immobilized αvβ3, mAb in solution.
Experiment [3] shares this target. Put plainly: BIAcore; αvβ3 in a hybrid bilayer membrane on the sensor, mAb at 100, 25, 6 nM in triplicate.
For experiment [4] the target is unchanged. Put plainly: BIAcore, αvβ3 immobilized in a hybrid bilayer membrane on the sensor surface, mAb in solution.
Experiment [5] has the same target. Briefly: competition: 1 ug/ml αvβ3 preincubated with unlabeled antibody, then binding of 1 ug/ml D12.
The target is the same in experiment [6]. Briefly: ORIGEN competition: αvβ3-biotin (1 ug/ml) preincubated with unlabeled antibody, then 1 ug/ml Tag-LM609.

The substance murine monoclonal antibody LM609 registered an Inhib (%) R-SMC (50 mg/ml) in experiment [1] of 43%. In addition, the dissociation constant Kd in experiment [2] amounted to 3.8 nM. Further, the Kd in experiment [3] was 0.46 nM. For the same substance, in experiment [4], the koff came out at 0.00051 s⁻¹ and the kon worked out at 1.1e+06 M⁻¹ s⁻¹. In experiment [5], this substance came in with a % Inhibition at 0.1 ug/ml of 3%, a % Inhibition at 1 ug/ml of 29% and a % Inhibition at 10 ug/ml of 68%. Also, in experiment [6], the % Inhibition at 0.1 ug/ml was 3%, the % Inhibition at 1 ug/ml was 41% and the % Inhibition at 10 ug/ml came out at 79%.
